Reference: patent publication US20120058906A1 (published 2012)
Values belong to the binder of their own block, whether it stands above or below them.

What was measured:
[1] = target: T1, Recombinant Human DLL4 (R&D Systems Cat#1506-D4/CF) (human, UniProt Q9NR61 27-524); assay: ECL (MSD Multi-Spot) binding, antigen spotted on plate; Fab 25 nM
T1 construct: Bought recombinant protein; also called delta-like protein 4

[2] = target: T2, rHuman P-Cadherin/Fc Chimera, CF (R&D Systems Cat#861-PC) (human, UniProt P22223 108-654); assay: as above
T2 construct: Bought Fc chimera; Fc part of the bought chimera not given

[3] = target: T3, rHuman CD44/Fc Chimera, CF (R&D Systems Cat#3660-CD) (human, UniProt P16070 21-220); assay: as above
T3 construct: Bought Fc chimera; Fc part of the bought chimera not given

[4] = target: T4, rHuman Erythropoietin R/Fc Chimera, CF (R&D Systems Cat#963-ER) (human, UniProt P19235 25-250); assay: as above
T4 construct: Bought Fc chimera; also called EPO R/Fc; erythropoietin receptor; Fc part of the bought chimera not given
T4 sequence: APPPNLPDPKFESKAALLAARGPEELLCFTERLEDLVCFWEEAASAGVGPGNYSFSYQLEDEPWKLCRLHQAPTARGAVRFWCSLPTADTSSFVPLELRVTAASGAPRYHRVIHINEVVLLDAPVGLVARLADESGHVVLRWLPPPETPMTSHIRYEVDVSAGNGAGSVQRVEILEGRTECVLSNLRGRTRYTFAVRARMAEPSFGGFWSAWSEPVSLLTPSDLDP

[5] = target: T5, rHuman Notch-1/Fc Chimera, CF (R&D Systems Cat#3647-TK) (human, UniProt P46531 19-526); assay: as above
T5 construct: Bought Fc chimera; Fc part of the bought chimera not given

[6] = target: T6, rHuman IGF-1 sR, CF (R&D Systems Cat#391-GR) (human, UniProt P08069 31-932); assay: as above
T6 construct: Bought soluble receptor; also called insulin-like growth factor-1 soluble receptor; IGF-R1

[7] = target: T1, Recombinant Human DLL4 (R&D Systems …); assay: ECL (MSD Multi-Spot) binding, antigen spotted on plate; Fab 500 nM
[8] = target: T2, rHuman P-Cadherin/Fc Chimera, CF (R&D …); assay: as above
[9] = target: T3, rHuman CD44/Fc Chimera, CF (R&D Systems …); assay: as above
[10] = target: T4, rHuman Erythropoietin R/Fc Chimera, CF …; assay: as above
[11] = target: T5, rHuman Notch-1/Fc Chimera, CF (R&D …); assay: as above
[12] = target: T6, rHuman IGF-1 sR, CF (R&D Systems …); assay: as above
[13] = target: T1, Recombinant Human DLL4 (R&D Systems …); assay: ECL (MSD Multi-Spot) binding, antigen spotted on plate; Fab 1.25 nM
[14] = target: T2, rHuman P-Cadherin/Fc Chimera, CF (R&D …); assay: as above
[15] = target: T3, rHuman CD44/Fc Chimera, CF (R&D Systems …); assay: as above
[16] = target: T4, rHuman Erythropoietin R/Fc Chimera, CF …; assay: as above
[17] = target: T5, rHuman Notch-1/Fc Chimera, CF (R&D …); assay: as above
[18] = target: T6, rHuman IGF-1 sR, CF (R&D Systems …); assay: as above
[19] = target: T1, Recombinant Human DLL4 (R&D Systems …); assay: ECL (MSD Multi-Spot) binding, antigen spotted on plate; Fab 0.0625 nM
[20] = target: T2, rHuman P-Cadherin/Fc Chimera, CF (R&D …); assay: as above
[21] = target: T3, rHuman CD44/Fc Chimera, CF (R&D Systems …); assay: as above
[22] = target: T4, rHuman Erythropoietin R/Fc Chimera, CF …; assay: as above
[23] = target: T5, rHuman Notch-1/Fc Chimera, CF (R&D …); assay: as above
[24] = target: T6, rHuman IGF-1 sR, CF (R&D Systems …); assay: as above
[25] = target: T7, rHuman EGF R/Fc Chimera, CF (R&D Systems Cat#344-ER) (human, UniProt P00533 25-645); assay: ECL (MSD Multi-Spot) binding, antigen spotted on plate; Fab 10 nM
T7 construct: Bought Fc chimera; also called epidermal growth factor receptor; Fc part of the bought chimera not given

[26] = target: T1, Recombinant Human DLL4 (R&D Systems …); assay: as above
[27] = target: T8, rHuman HGF R/c-MET/Fc Chimera, CF (R&D Systems Cat#358-MT/CF) (human, UniProt P08581 25-932); assay: as above
T8 construct: Bought Fc chimera; also called HGF R/Fc; hepatocyte growth factor receptor; Fc part of the bought chimera not given

[28] = target: T2, rHuman P-Cadherin/Fc Chimera, CF (R&D …); assay: as above
[29] = target: T3, rHuman CD44/Fc Chimera, CF (R&D Systems …); assay: as above
[30] = target: T4, rHuman Erythropoietin R/Fc Chimera, CF …; assay: as above
[31] = target: T9, rHuman ErbB2/Fc Chimera, CF (R&D Systems Cat#1129-ER) (human, UniProt P04626 23-652); assay: as above
T9 construct: Bought Fc chimera; also called human epidermal growth factor 2 receptor; HER2/neu; Fc part of the bought chimera not given

[32] = target: T5, rHuman Notch-1/Fc Chimera, CF (R&D …); assay: as above
[33] = target: T6, rHuman IGF-1 sR, CF (R&D Systems …); assay: as above
[34] = target: T7, rHuman EGF R/Fc Chimera, CF (R&D …); assay: ECL (MSD Multi-Spot) binding, antigen spotted on plate; Fab 1000 nM
[35] = target: T1, Recombinant Human DLL4 (R&D Systems …); assay: as above
[36] = target: T8, rHuman HGF R/c-MET/Fc Chimera, CF (R&D …); assay: as above
[37] = target: T2, rHuman P-Cadherin/Fc Chimera, CF (R&D …); assay: as above
[38] = target: T3, rHuman CD44/Fc Chimera, CF (R&D Systems …); assay: as above
[39] = target: T4, rHuman Erythropoietin R/Fc Chimera, CF …; assay: as above
[40] = target: T9, rHuman ErbB2/Fc Chimera, CF (R&D …); assay: as above
[41] = target: T5, rHuman Notch-1/Fc Chimera, CF (R&D …); assay: as above
[42] = target: T6, rHuman IGF-1 sR, CF (R&D Systems …); assay: as above
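Further: blank spot per well as comparator with Hit at signal to blank ratio of 4 or more.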

- ECL signal [1]: 77900
- ECL signal [2]: 269
- ECL signal [3]: 570
- ECL signal [4]: 597
- ECL signal [5]: 440
- ECL signal [6]: 780
- ECL signal [7]: 25900
- ECL signal [8]: 815
- ECL signal [9]: 923
- ECL signal [10]: 828
- ECL signal [11]: 703
- ECL signal [12]: 1110
- ECL signal [13]: 38800
- ECL signal [14]: 374
- ECL signal [15]: 444
- ECL signal [16]: 448
- ECL signal [17]: 312
- ECL signal [18]: 674
- ECL signal [19]: 1010
- ECL signal [20]: 331
- ECL signal [21]: 394
- ECL signal [22]: 332
- ECL signal [23]: 439
- ECL signal [24]: 537
B1: Fab VH5-51_IGHD5-18*01>3_IGHJ4*01_G100K_G104T & V3-4_IGLJ1*01 (Fab, V domains shown)
VH: EVQLVQSGAEVKKPGESLKISCKGSGYSFTSYWIGWVRQMPGKGLEWMGIIYPGDSDTRYSPSFQGQVTISADKSISTAYLQWSSLKASDTAMYYCARRKYSYTYDYFDYWGQGTLVTVSS
VL: QTVVTQEPSFSVSPGGTVTLTCGLSSGSVSTSYYPSWYQQTPGQAPRTLIYSTNTRSSGVPDRFSGSILGNKAALTITGAQADDESDYYCVLYMGSGISYVFGTGTKVTVL
notes: Fab made in E. coli

- ECL signal [25]: 809
- ECL signal [26]: 345000
- ECL signal [27]: 691
- ECL signal [28]: 894
- ECL signal [29]: 887
- ECL signal [30]: 1110
- ECL signal [31]: 842
- ECL signal [32]: 1140
- ECL signal [33]: 720
- ECL signal [34]: 2430
- ECL signal [35]: 73300
- ECL signal [36]: 1580
- ECL signal [37]: 2500
- ECL signal [38]: 1310
- ECL signal [39]: 1660
- ECL signal [40]: 1290
- ECL signal [41]: 1620
- ECL signal [42]: 1180
B2: Fab VH1-46_IGHD6-6*01_IGHJ1*01_S102A_S103P_S104F & L6_IGKJ1*01 (Fab, V domains shown)
VH: QVQLVQSGAEVKKPGASVKVSCKASGYTFTSYYMHWVRQAPGQGLEWMGIINPSGGSTSYAQKFQGRVTMTRDTSTSTVYMELSSLRSEDTAVYYCAREEYAPFSAEYFQHWGQGTLVTVSS
VL: not shown
notes: Fab made in E. coli; The heavy chain also carries the CH1 with Flag and His tags of Plasmid A, and the light chain the kappa constant region of Plasmid C
